Data on one substance can be found in paper PMC8307315.

Holding throughout (test): SPR; Biacore 2000, CM4 chip; PSA amine-coupled, antibody or conjugate bound to it; 10 min into the dissociation phase 40 nM FcRn in 10 mM maleic acid (pH 6.0) flown over for 3 min; number of FcRn bound per antibody from the RUs at the end of the FcRn injection
The target in assay [1] is hu5A10-DOTA, 3:1 chelator-to-antibody molar ratio.
Assay [2] deals with humanized 5A10 (hu5A10), unconjugated.
Assay [3] deals with hu5A10-DTPA, 12:1 chelator-to-antibody molar ratio.
In assay [4] the target is hu5A10-DTPA, 3:1 chelator-to-antibody molar ratio.
In assay [5] the target is hu5A10-DOTA, 6:1 chelator-to-antibody molar ratio.
Assay [6] concerns the target hu5A10-DTPA, 6:1 chelator-to-antibody molar ratio.
For assay [7], the target named is hu5A10-DOTA, 12:1 chelator-to-antibody molar ratio.

On to “neonatal fc-receptor (FcRn) (from UniProt P55899 24-297)”, for which the FcRn bound per antibody (FcRn per antibody) in assay [1] came out at 0.8; in assay [2] it was 1.8; in assay [3] it was 1.7; in assay [4] it was 1.9; in assay [5], 0.5; in assay [6], 1.9. In assay [7], the FcRn bound per antibody (FcRn per antibody) is 0.1.
